From patent publication US20230331827A1, “POTASSIUM CHANNEL INHIBITORS” (priority 2017, published 2023)
Where two headings read alike, the source gives them in different places.

Key:
human Kv1.1 (huKv1.1) = biological target: T1, human Kv1.1 (huKv1.1) (Homo sapiens, UniProt Q09470); assay: QPatch automated patch-clamp, CHO-S cells expressing huKv1.1 (Examples 20-21); assay type: cell-based; conditions: four-point curves of FIG. 33, Table E20
T1 construct: expressed in transfected cells; host or cells: Freestyle CHO-S
Method: 1. The effect of these KnotBodies on cells expressing human Kv1.1 (huKv1.1) and Kv1.3 (huKv1.3) channels was assessed using QPatch automated patch-clamp platform (Sophion).
To generate huKv1.1 expressing cells, Freestyle CHO-S cells (Cat. no. R80007, Life Technologies, California, USA) were transfected with pINT50-Tr plasmid encoding huKv1.1 gene using the MaxCyte STX (MaxCyte) transfection system. In pINT50-Tr plasmid, huKv1.1 gene is under the control of a CMV promoter. 64 µg of the plasmid DNA were added to 400 µl of Freestyle CHO-S cells (at a density of 1 × 10^8 cells/ml) in Electroporation Buffer (GE Healthcare Life Sciences, Cat. no. EPB1) in an OC-400 processing assembly (MaxCyte). Following electroporation, the cells were transferred to a well of a 24-well plate containing 200 U/ml DNAse I (Sigma, D4263) and incubated for 20 minutes at 37° C. and 5% CO2. The cells were then transferred into a 100 ml shaker flask containing 20 ml of CD Opticho Media (Thermo Fisher Scientific, Cat.No 12681-011,) supplemented with 8 mM L-Glut (Thermo Fisher Scientific, cat. no. 25030-024). The cells were incubated for 24 hours at 37° C. and 5% CO2 (and 75% humidity and shaking at 800 rpm) prior to testing using automated patch clamp electrophysiology.
For the testing of Kv1.1 and Kv1.3, CHO-S expressing huKv1.1 (described above) or CHO cells stably expressing huKv1.3 (Charles River Lab) were analysed using the QPatch electrophysiology assay in the presence or absence of the KnotBody fusions. Internal and external physiological solutions were freshly prepared prior to the assay. The extracellular solution contained 145 mM NaCl, 4 mM KC1, 2 mM CaC12, 1 mM MgC12, 10 mM HEPES and 10 mM glucose; the pH was adjusted to 7.4 with NaOH; the osmolarity was ~ 305 mOsm/L. The intracellular solution contained: KF (120 mM), KC1 (20 mM), HEPES (10 mM) EGTA (10 mM); the pH was adjusted to 7.2 with KOH; osmolarity was ~ 300 mOsm/L.
A series of depolarising voltage (channel activating) pulses were used to monitor the channel currents upon adding control (extracellular solution) to define a control baseline of current activity. To these measured control currents four, ascending concentrations of KnotBodies (including previously described KB_A12_ShK and KB_A12_KTX described in Example 8) or parental antibody isotypes (control molecules) were applied to the external bathing solution. KnotBodies KB_A12 and KB_A07 (EETI-II fusions) were used as isotype controls for the testing. From a holding voltage of -80 mV a depolarising, activating voltage pulses of […] were applied for 300 ms, every 10 seconds. The elicited, maximum outward current values measured during the activating step for each solution exchange period, averaged (n = 3 - 6 for each concentration applied) and plotted as concentration-response curves (see FIG. 33). From these concentration-response curves IC50 values were calculated (see Table E20).
For the testing of Kv1.1 and Kv1.3, CHO-S expressing huKv1.1 (see Example 20 and below) or CHO cells stably expressing huKv1.3 (Charles River Lab) were analysed using the QPatch electrophysiology assay in the presence or absence of the KnotBody fusions - see details in Examples 19 and 20.
In addition to the CHO-S transiently expressing huKv1.1 (described in Example 20), CHO-S cells with poly-clonal stable expression of huKv1.1 cells were also made and used in the QPatch electrophysiology assay. To generate the polyclonal stable huKv1.1 cells from the transiently expressing cells described in Example 20, after a 24 hour incubation period the selection antibiotic Puromycin (catalogue no. A1 1138-03, Life Technologies, California, USA) was added to culture media. Then, for the first 14 days puromycin was at 10 µg ml-1 media; at days 15-28 puromycin was at 20 µg ml-1 media. Cell cultures were seeded at 2.5 x 10^5 cells ml^-1 into fresh culture media and puromycin twice per week through this selection growth period. […]

human Kv1.3 (huKv1.3) = biological target: T2, human Kv1.3 (huKv1.3) (Homo sapiens, UniProt P22001); assay: QPatch automated patch-clamp, CHO cells stably expressing human Kv1.3 (Examples 19-21); assay type: cell-based
T2 construct: host or cells: CHO
In short: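 Whole-cell currents were recorded in extracellular solution of 145 mM NaCl, 4 mM KCl, 2 mM CaCl2, 1 mM MgCl2, 10 mM HEPES, 10 mM glucose (pH 7.4), with a KF/KCl/EGTA pipette solution (pH 7.2). From -80 mV, +30 mV pulses of 300 ms were applied every 10 s, with four ascending KnotBody concentrations added extracellularly. Peak outward current was averaged (n = 3-6) and IC50 fitted from concentration-response curves.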

T2 sequence (P22001 whole entry): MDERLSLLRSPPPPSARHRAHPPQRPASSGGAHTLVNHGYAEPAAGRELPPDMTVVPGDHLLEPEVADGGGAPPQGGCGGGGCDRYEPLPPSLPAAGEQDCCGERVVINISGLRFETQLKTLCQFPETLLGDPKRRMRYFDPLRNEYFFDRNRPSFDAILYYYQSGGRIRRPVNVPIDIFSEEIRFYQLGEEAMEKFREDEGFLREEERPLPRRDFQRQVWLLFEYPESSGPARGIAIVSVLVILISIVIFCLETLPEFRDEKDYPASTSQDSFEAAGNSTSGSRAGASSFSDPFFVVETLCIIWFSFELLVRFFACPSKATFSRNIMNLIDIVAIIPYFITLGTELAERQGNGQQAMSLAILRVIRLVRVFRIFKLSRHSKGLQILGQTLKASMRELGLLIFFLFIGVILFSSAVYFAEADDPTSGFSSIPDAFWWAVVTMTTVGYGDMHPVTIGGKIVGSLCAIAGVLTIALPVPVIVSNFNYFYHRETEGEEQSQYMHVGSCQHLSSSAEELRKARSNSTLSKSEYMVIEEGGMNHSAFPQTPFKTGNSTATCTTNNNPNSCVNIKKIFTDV
T1 sequence (Q09470 whole entry): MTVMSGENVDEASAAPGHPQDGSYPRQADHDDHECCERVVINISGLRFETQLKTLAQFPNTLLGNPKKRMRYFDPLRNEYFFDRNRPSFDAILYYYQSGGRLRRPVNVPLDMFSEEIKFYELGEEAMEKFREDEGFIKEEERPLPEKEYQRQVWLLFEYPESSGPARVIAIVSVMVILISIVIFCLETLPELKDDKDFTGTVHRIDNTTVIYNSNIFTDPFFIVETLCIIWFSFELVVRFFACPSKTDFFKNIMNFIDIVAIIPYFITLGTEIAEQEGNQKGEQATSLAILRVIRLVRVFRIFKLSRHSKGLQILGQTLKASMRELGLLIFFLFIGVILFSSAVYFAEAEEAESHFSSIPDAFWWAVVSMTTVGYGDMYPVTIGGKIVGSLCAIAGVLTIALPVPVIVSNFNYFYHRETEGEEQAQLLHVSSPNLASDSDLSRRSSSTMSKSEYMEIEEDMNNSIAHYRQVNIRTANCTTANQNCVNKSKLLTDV

B1: KB_A12_ShK: ShK toxin in VL CDR2 of KB_A12, IgG1 (antibody, V domains shown)
VH: EVQLVESGGGLVRPGGSLRLSCAASGFTFSSYAMSWVRQAPGKGLEWVSAISGSGGSTYYADSVKGRFTISRDNTKNSLYLQMTSLRADDTAFYYCVKDFGPGYGTGWFDYWGPGTLVTVSS
VL: QSVLTQPPSVSEAPRQRVTITCSGSSSNIGNNAVNWYQQLPGKAPKLLIYAAGRRSCIDTIPKSRCTAFQCKHSMKYRLSFCRKTCGTCANSGVSDRFSAAKSGTSASLAINGLRSEDEADYYCAAWDDSLNGYVFGTGTKLTVLG
B1 was tested, and the IC50 (human Kv1.1 (huKv1.1)) was 40 nM, the Fold difference (human Kv1.3 (huKv1.3); Kv1.1 IC50 over Kv1.3 IC50, Table E20) was 3 and the IC50 (human Kv1.3 (huKv1.3); four-point curves of FIG. 33, Table E20, read-out: Kv1.3 IC50) was 13 nM. The IC50 (human Kv1.3 (huKv1.3); huKv1.3, four-point curves of FIG. 32, Table E19, read-out: IC50) was 8.6 nM.
